This assay concerns the target head domain of PPRV ICV'89 strain H protein (residues 156-610) (peste des petits ruminants virus, strain Ivory Coast'89 (ICV'89)). Kind of assay: SEC.

Consider “head domain of PPRV ICV'89 strain H protein (residues 156-610) (domain or fragment)”, for which the stoichiometry N stood at 2.

The values above are taken from publication PMC7889028.
